Experimental data published in patent publication US20050208042A1 (GENETICS INSTITUTE, published 2005).

T1: human B7-2Ig (recombinant soluble hB7-2Ig) (human, UniProt P42081 24-247)
T1 construct: extracellular domain; Secreted by CHO cells, purified on protein A, immobilized on the BIACORE chip; not shown: hinge-CH2-CH3 domains of the human IgG1 heavy chain
T1 sequence (looked up): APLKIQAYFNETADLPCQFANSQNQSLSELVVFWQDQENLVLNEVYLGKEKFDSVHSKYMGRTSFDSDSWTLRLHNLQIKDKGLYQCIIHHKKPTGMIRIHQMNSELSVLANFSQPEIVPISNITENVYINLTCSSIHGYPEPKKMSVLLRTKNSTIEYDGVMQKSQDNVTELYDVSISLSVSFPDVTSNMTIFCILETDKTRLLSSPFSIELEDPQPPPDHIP

T2: human B7-1 (CD80) expressed on the cell surface (CHO/hB7-1 cells) (human, UniProt P33681 35-288)
T2 construct: whole, on cells; Also used for native B7-1 on human PBL in the MLR; also called rhB7-1
T2 sequence (looked up): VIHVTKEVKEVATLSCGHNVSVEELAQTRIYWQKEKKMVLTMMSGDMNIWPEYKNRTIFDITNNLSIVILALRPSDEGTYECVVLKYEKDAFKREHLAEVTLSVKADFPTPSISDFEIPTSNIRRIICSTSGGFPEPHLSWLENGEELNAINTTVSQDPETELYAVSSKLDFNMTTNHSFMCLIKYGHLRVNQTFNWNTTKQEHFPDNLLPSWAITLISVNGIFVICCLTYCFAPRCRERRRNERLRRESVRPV

T3: human B7-2 (CD86) expressed on the cell surface (CHO/hB7-2 cells) (human, UniProt P42081 24-329)
T3 sequence (looked up): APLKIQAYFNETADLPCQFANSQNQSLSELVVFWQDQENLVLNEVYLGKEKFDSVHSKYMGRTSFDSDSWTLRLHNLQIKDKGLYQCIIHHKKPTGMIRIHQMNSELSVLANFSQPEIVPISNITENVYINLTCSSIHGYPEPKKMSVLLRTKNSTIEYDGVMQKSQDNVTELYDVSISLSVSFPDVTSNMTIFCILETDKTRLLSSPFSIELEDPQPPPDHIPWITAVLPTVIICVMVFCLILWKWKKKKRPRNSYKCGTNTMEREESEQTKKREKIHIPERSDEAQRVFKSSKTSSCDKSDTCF


Experiments:
[1] = target: T1, human B7-2Ig (recombinant soluble …); test: SPR (BIACORE), hB7-2Ig immobilized, bivalent model, mean of three runs
Method: (§1) The BIACORE® biosensor (BIACORE®; Uppsalla, Sweden) was used to determine binding kinetics of murine and humanized anti-B7-2 human antibodies to human B7-2Ig. Hunan B7-2Ig (hB7-2Ig) was immobilized onto the dextran matrix of a BIACORE® sensor chip. Humanized and murine anti-human B7-2 were tested at 200, 100, 50, and 20 nM. Each dilution was tested 4 times per run and a total of three separate runs performed. Anti-human B7-2 antibody binding was measured in real time by Surface Plasmon Resonance (SPR) and global analysis was performed using the bivalent binding model in BIA evaluation software (version 3.1). For each sample, the association (kₐ), dissociation (kd), and equilibrium dissociation constant (KD) were determined.

[2] = target: T2, human B7-1 (CD80) expressed on the cell …; test: 125I direct binding, CHO cells expressing B7-1 as control for non-specific binding
Text: (§2) Binding assays were begun by plating cells onto 96-well tissue culture plates at 10,000 CHO/hB7-2 cells per well. Two days later, adherent cells were gently washed with assay buffer containing nonfat dry milk protein (for blocking nonspecific binding) and sodium azide (to prevent internalization of antibodies by cells). For direct binding assays, ¹²⁵I-labeled anti-B7 antibodies (¹²⁵I-murine anti-human B7-2; 826 cpm/fmol; humanized anti-human B7-2, 883 cpm/fmol) were serially diluted in assay buffer and incubated on cells overnight, allowing antibodies to bind to cell-surface B7 and come to equilibrium. Unbound antibody was gently washed from cells, and bound ¹²⁵I-labeled antibody was detected using an ¹²⁵I scintillant and photodetector system. Non-specific binding to CHO cells was determined for each dilution in the same manner, but on cells expressing the B7-1 molecule that is not recognized by the antibody being tested.

[3] = target: T3, human B7-2 (CD86) expressed on the cell …; test: cell-based or functional assay
[4] = target: T1, human B7-2Ig (recombinant soluble …); test: SPR (BIACORE), hB7-2Ig immobilized
Method: as §1

[5] = target: T3, human B7-2 (CD86) expressed on the cell …; test: competitive binding against 125I-murine 3D1 on CHO/hB7-2 cells
Method: (§3) The relative affinities, of the murine and humanized 3D1 antibodies for the B7-2 antigen were determined by competitive binding assays. Three-fold serial dilutions of unlabeled humanized or murine 3D1 antibodies were mixed with a fixed amount of radio-iodinated murine 3D1 antibody (40,000-50,000 cpm per test in PBS containing 2% fetal calf serum).
(§4) 1×10⁵ CHO cells expressing cell surface rhB7-2 (CHO/hB7-2) were added subsequently and the mixture (in a total volume of 200 μL) was incubated for 2 hr at 4° C. with gentle shaking. The cell-antibody suspension was then transferred to Sarstedt Micro Tubes (part #72.702) containing 100 μL of 80% dibutyl phthalate-20% olive oil. After centrifugation in a microfuge, the Sarstedt tubes were plunged into dry ice for several minutes. Cell-bound ¹²⁵I was determined by clipping tips of each tube (containing cell pellets) into scintillation vials and counting in a gamma counter. Bound and free counts were determined and the ratio plotted against the concentrations of the cold competitor antibodies according to the method of Berzofsky and Berkower (J. A. Berzofsky and I. J. Berkower, in Fundamental Immunology 9ed. W. E. Paul), Raven Press (New York), 595 (1984)).

[6] = target: T3, human B7-2 (CD86) expressed on the cell …; test: direct binding of 125I-labeled antibody to CHO/hB7-2 cells, half-maximal binding
Text: as §2
The data, means of triplicate wells with nonspecific binding subtracted, were fit to a hyperbolic saturation curve using Graphpad PrismJ software. […] Both murine and humanized anti-B7-2 antibodies recognize cell surface expressed hB7-2 with high affinity.

[7] = target: T2, human B7-1 (CD80) expressed on the cell …; test: competitive binding against 125I-humanized 1F1 on CHO cells expressing rhB7-1
Method: as §4, with “The affinity of the mouse and humanized 1F1 antibodies for the B7-1 antigen was determined by competitive binding with radio-iodinated humanized 1F1 antibody. Three-fold serial dilutions of unlabeled mouse or humanized 1F1 antibodies were mixed with a fixed amount of radio-iodinated humanized 1F1 antibody (40,000-50,000 cpm per test) in PBS containing 2% fetal calf serum, 0.1% sodium azide. 3×10⁴” for “1×10⁵”, “rhB7-1” for “rhB7-2 (CHO/hB7-2)”, “clipping the” for “clipping”, “Immunology,” for “Immunology 9ed.”, “Paul,” for “Paul),”, “Press, New York, pp. 595-644” for “Press (New York), 595”

[8] = target: T2, human B7-1 (CD80) expressed on the cell …; test: competition binding on CHO cells expressing rhB7-1: unlabeled competitor against 125I-humanized 1F1 tracer, bound/free ratio
Method: as §4, with “The affinity of the mouse and humanized 1F1 antibodies for the B7-1 antigen was determined by competitive binding with radio-iodinated humanized 1F1 antibody. Three-fold serial dilutions of unlabeled mouse or humanized 1F1 antibodies were mixed with a fixed amount of radio-iodinated humanized 1F1 antibody (40,000-50,000 cpm per test) in PBS containing 2% fetal calf serum, 0.1% sodium azide. 3×10⁴” for “1×10⁵”, “rhB7-1” for “rhB7-2 (CHO/hB7-2)”, “clipping the” for “clipping”, “Immunology,” for “Immunology 9ed.”, “Paul,” for “Paul),”, “Press, New York, pp. 595-644” for “Press (New York), 595”

[9] = target: T3, human B7-2 (CD86) expressed on the cell …; test: competition binding on CHO/hB7-2 cells: unlabeled competitor against 125I-murine 3D1 tracer, bound/free ratio
Method: as §3, §4

Binder	Kd [1] [nM]	binding result [2]	IC50 of inhibition of CD28+ human T cell proliferation stimulated with PMA and CHO/hB7-2 cells [3] [nM]	Ka [5] [M⁻¹]	Kd [6] [nM]	further results
murine 3D1 monoclonal antibody (murine anti-human B7-2 mAb) (antibody, V domains shown, Hybridoma mouse antibody with kappa light chain; also called HF2.3D1; mouse 3D1) VH: QVQLQQSGPELVRPGESVKISCKGSGYTFTDYAIQWVKQSHAKSLEWIGVINIYYDNTNYNQKFKGKATMTVDKSSSTAYMELARLTSEDSAIYYCARAAWYMDYWGQGTSVTVSS VL: DIVLSQSPSSLAVSAGEKVTMSCKSSQSLLNSRTRENYLAWYQQKPGQSPKLLIYWASTRESGVPDRFTGSGSGTDFTLTISSVQAEDLAVYYCTQSYNLYTFGGGTKLEIK	1.8	no binding	0.072	~1e+09	~1	fold higher affinity than the humanized anti-B7-2 mAb [4]: ~2.8 fold
humanized anti-human B7-2 mAb (humanized 3D1), isotype not stated in the example (antibody, V domains shown, Same variable regions; The entries include signal peptides (see the note of m2); also called humanized anti-B7-2; humanized anti-hB7-2) VH: QVQLVQSGAEVKKPGSSVKVSCKASGYTFTDYAIQWVRQAPGQGLEWIGVINIYYDNTNYNQKFKGKATMTVDKSTSTAYMELSSLRSEDTAVYYCARAAWYMDYWGQGTLVTVSS VL: DIVLTQSPDSLAVSLGERATISCKSSQSLLNSRTRENYLAWYQQKPGQPPKLLIYWASTRESGVPDRFSGSGSGTDFTLTISSLQAEDVAVYYCTQSYNLYTFGQGTKVEIK	5.1	no binding	0.05		~1	
humanized 1F1 antibody, IgG2.M3 form (antibody, V domains shown, Human gamma 2 constant region variant M3 (Val and Gly at positions 234 and 237 replaced with Ala) and human kappa light chain; also called hu1F1; the IgG2.M3 antibody) VH: EVQLVQSGAEVKKPGASVKVSCKPSGFNIKDYYMHWVRQAPGQGLEWIGWIDPENGNTLYDPKFQGKATITADTSTSTAYMELSSLRSEDTAVYYCAREGLFFAYWGQGTLVTVSS VL: DIQMTQSPSSLSASVGDRVTITCSVSSSISSSNLHWYQQKPGKAPKPLIYGTSNLASGVPSRFSGSGSGTDYTLTISSLQPEDVATYYCQQWSSYPLTFGQGTKVEIK						Ka [7]: ~1e+09 M⁻¹; IC50 (read off the curve) [8]: ~1 nM
humanized 3D1 antibody, IgG4 form (antibody, V domains shown, Human gamma 4 constant region (pVg4 vector) and human kappa light chain (pVk); also called humanized IgG4 anti-human B7-2; hu3D1) VH: QVQLVQSGAEVKKPGSSVKVSCKASGYTFTDYAIQWVRQAPGQGLEWIGVINIYYDNTNYNQKFKGKATMTVDKSTSTAYMELSSLRSEDTAVYYCARAAWYMDYWGQGTLVTVSS VL: DIVLTQSPDSLAVSLGERATISCKSSQSLLNSRTRENYLAWYQQKPGQPPKLLIYWASTRESGVPDRFSGSGSGTDFTLTISSLQAEDVAVYYCTQSYNLYTFGQGTKVEIK				~1e+09		IC50 (read off the curve) [9]: ~1 nM
humanized 3D1 antibody, IgG2.M3 form (antibody, V domains shown, Human gamma 2 constant region variant M3 (Val and Gly at positions 234 and 237 replaced with Ala; pVg2.M3 vector) and human kappa light chain; The entries include signal peptides (see the note of m2); also called humanized IgG2.M3 anti-human B7-2; hu3D1) VH: QVQLVQSGAEVKKPGSSVKVSCKASGYTFTDYAIQWVRQAPGQGLEWIGVINIYYDNTNYNQKFKGKATMTVDKSTSTAYMELSSLRSEDTAVYYCARAAWYMDYWGQGTLVTVSS VL: DIVLTQSPDSLAVSLGERATISCKSSQSLLNSRTRENYLAWYQQKPGQPPKLLIYWASTRESGVPDRFSGSGSGTDFTLTISSLQAEDVAVYYCTQSYNLYTFGQGTKVEIK				~1e+09		
